According to publication PMC11567897:

Biological target: T1, Bruno-EGFP (BrunoFL-EGFP) (UniProt O02374)
T1 sequence: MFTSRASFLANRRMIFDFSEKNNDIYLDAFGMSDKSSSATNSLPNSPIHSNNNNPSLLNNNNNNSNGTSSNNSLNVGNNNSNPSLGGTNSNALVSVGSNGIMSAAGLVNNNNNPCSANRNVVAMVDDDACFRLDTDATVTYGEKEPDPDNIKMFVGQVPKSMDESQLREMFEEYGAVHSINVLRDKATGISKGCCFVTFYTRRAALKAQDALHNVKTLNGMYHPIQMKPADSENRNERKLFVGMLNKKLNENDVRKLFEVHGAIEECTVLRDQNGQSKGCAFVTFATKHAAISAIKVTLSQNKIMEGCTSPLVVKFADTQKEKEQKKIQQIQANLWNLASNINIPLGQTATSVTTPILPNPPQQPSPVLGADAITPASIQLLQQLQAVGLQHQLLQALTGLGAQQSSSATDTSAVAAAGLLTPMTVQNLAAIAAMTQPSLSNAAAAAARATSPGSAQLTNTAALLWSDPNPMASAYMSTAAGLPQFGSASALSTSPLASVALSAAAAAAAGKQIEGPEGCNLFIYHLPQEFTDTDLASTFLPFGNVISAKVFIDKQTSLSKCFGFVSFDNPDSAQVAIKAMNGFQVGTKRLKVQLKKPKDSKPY
Test: EMSA
Settings: EMSA: 50 nM RNA, 20 mM Tris-HCl pH 7.5, 150 mM NaCl, 2 mM MgCl2, 5% glycerol, 0.5 mM TCEP, 20 min at room temperature; 0.8% agarose 0.5x TBE gel at 4 C

“GGGAGUGAAGCAUUUGCGCGAUUUUCGUCUUUCUGUUUCCGUUUGCAAAAAAGUUUAUAAAAUGCUUACACUCUGCUGCAGACACGCCAACCGGAAGUGCGCACUAAGCGCUUGUUUGUAGCACAGUGUAGAAUUCUGGCGUAAUUUACAGCUCUACUUUAAAGUCUUCUAGAUAGCUAUCUACUAUUUAUAAACUUAUUUAUUGUCUUGAAUGUAUGUUAAUUGUAUGUAUUGAUGGUGAUCACGUUUUUUUUGUCCUAUAACAAGCUGCAAUGUAAAAUCCAAAAAAAAAAUG [oskar292]” was tested, and the binding was “binds”.
“GGGUGGAAAAUUCGCUUGCACAAAAUCAACGUUGCGGCUGAUUUAUUAUUGAUGUGCUCAAGCAAAUUCA [UUOES (UU67)]” was tested, and the binding was “no binding”.
For “GGGUGGAAAAUUCGCUUGCACAAAAUCAACGCCGCGGCUGAUUUAUUAUUGAUGUGCUCAAGCAAAUUCA [WTOES (WT67)]”, the binding was “no binding”.
